The text below walks through data of PMC9700395.

The target of the data set is Thrombin (UniProt P00734;P00734 328-363;364-622). The experiment in a line: ion current rectification nanopipette aptasensor.

B1: N protein aptamer (ssDNA)
DNA: GCTGGATGTCGCTTACGACAATATTCCTTAGGGGCACCGCTACATTGACACATCCAGC
modifications: 5'-NH2
For B1, the binding result is recorded as “no binding”.
